Experimental data: patent US5210024A, “Isolation of strains of Saccharomyces cerevisiae having altered α-acetyltransferase activity” (priority 1991, dated 1993)

Tests used:
[1] = molecular target: T1, N^α -AT (AAA1 N^α -acetyltransferase) (Saccharomyces cerevisiae, UniProt P07347+P12945); conditions: purified enzyme; Lee et al., J. Biol. Chem. 263:14948-14955 (1988); cited from earlier work
T1 construct: isolates N^α -acetyltransferase by treating yeast cells with lyticase; endogenous in cells; host or cells: Saccharomyces cerevisiae cells (native enzyme)
T1 sequence (P12945 2-854): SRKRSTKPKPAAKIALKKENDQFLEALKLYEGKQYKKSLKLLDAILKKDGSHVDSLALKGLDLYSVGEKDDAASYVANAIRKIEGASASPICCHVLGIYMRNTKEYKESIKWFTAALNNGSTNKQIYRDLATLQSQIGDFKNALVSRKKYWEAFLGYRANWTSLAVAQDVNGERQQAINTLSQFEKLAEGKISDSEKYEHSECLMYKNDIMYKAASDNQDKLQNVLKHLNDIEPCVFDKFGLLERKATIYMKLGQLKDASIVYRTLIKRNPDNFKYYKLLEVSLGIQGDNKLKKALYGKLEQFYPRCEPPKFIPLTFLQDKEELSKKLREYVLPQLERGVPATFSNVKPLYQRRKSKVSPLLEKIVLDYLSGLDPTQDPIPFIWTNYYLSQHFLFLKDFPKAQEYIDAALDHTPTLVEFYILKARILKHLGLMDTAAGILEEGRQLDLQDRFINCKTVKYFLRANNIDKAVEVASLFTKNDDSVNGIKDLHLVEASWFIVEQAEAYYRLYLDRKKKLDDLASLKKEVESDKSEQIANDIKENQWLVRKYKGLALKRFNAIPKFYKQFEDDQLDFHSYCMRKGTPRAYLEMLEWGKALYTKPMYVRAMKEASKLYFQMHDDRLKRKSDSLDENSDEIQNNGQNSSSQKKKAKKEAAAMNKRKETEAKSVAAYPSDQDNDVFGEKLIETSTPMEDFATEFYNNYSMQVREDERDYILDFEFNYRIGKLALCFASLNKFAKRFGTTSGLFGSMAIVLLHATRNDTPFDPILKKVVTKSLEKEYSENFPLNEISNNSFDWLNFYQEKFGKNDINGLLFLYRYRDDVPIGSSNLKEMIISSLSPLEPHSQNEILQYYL
T1 sequence (P07347 1-238): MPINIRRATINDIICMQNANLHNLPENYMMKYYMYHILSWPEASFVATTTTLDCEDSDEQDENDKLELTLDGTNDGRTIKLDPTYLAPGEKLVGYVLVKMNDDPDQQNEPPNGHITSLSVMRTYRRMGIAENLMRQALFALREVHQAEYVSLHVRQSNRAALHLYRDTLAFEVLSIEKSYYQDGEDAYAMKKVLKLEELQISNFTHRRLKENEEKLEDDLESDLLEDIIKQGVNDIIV

[2] = molecular target: T2, M-N^α -AT (methionine N^α -acetyltransferase) (Saccharomyces cerevisiae, UniProt Q06504); assay: N^α-acetylation of synthetic peptides by methionine N^α-acetyltransferase; assay type: biochemical; set-up: concentration or dose not given beside the values
T2 construct: endogenous in cells; host or cells: Saccharomyces cerevisiae aaa1 (AAA1-null) mutant
T2 sequence (Q06504 1-195): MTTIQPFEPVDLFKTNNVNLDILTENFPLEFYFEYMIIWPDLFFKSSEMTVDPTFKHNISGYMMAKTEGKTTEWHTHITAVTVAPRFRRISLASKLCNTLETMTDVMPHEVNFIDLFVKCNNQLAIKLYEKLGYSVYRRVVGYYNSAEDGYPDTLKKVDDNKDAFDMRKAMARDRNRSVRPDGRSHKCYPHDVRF
T2 sequence (Q12387 2-796 partner limits assumed): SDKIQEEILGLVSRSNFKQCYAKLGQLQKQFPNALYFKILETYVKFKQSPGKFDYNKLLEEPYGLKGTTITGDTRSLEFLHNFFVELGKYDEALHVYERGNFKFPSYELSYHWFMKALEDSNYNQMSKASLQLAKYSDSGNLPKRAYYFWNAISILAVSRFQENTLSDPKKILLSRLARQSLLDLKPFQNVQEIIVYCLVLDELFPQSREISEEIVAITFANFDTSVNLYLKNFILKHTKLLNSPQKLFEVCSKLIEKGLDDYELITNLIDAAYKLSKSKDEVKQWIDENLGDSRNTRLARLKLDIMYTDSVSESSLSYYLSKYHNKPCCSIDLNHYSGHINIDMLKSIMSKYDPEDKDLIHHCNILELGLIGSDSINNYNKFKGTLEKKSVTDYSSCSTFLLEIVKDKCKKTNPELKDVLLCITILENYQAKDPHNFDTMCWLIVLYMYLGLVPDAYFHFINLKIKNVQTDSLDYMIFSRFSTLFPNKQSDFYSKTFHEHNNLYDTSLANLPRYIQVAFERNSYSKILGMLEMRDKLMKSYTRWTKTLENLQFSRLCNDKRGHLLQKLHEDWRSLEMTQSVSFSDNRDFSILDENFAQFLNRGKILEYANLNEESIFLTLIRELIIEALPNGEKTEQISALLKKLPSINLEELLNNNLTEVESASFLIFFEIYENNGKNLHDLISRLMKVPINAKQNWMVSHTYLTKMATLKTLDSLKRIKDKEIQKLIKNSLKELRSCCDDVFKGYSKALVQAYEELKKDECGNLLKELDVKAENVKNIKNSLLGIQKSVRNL
Method: (§1) Aliquots of the lysate were added to 1.5 ml Eppendorf tubes containing a reaction mixture of 50 mM HEPES, pH 7.4, 150 mM KCl, 1 mM DTT, 25 μM[^3 H]acetyl coenzyme A (0.5 μCi) and 50 μM ACTH (1-24) with an adjusted final volume of 100 μl. The assay mixture was incubated at 30 C for 30 min. The reaction was stopped by adding 0.5 M acetic acid and chilled in an ice bath. […] The radioactivity in the control represented acetylation of endogenous compounds is subtracted from each sample determination. One unit of activity is defined as 1 pmol of acetyl residues incorporated into ACTH (1-24) under standard assay conditions.
(§2) This second N^α -acetyltransferase is a methionine N^α -acetyltransferase activity, and is designated as "M-N^α -AT." This second N^α -acetyltransferase is the subject of U.S. patent application of John A. Smith and Fang-Jen S. Lee, filed Oct. […] In order to compare the relative specificity and activity of the AAA1 N^α -acetyltransferase ("N^α -AT") of the present invention with the methionine N^α -acetyltransferase activity (M-N^α -AT) of U.S. patent application of John A. Smith and Fang-Jen S. Lee, filed Oct. […] These peptides were assessed for their ability to serve as substrates for the two enzymes. In Table 2, the effect of the amino terminal amino acid on activity is investigated; in Table 3, the effect of the penultimate amino terminal amino acid on activity is investigated.

[3] = molecular target: T1, N^α -AT (AAA1 N^α -acetyltransferase); assay: N^α-acetylation of synthetic peptides by AAA1 N^α-acetyltransferase ([3H]acetyl coenzyme A incorporation); assay type: biochemical; set-up: concentration or dose not given beside the values
Method: as §1, §2

[4] = Table 2: relative activity for N^α-acetylation of synthetic peptide substrate, influence of the amino terminal residue
[5] = Table 3: relative activity for N^α-acetylation of synthetic peptide substrate, influence of the penultimate amino terminal residue

| Substance | transfer of an acetyl group to synthetic peptide substrates by purified yeast N^α-acetyltransferase [1] | Activity (%) (mean activity ± S.D.) M-N^α -AT [2, 4] | Activity (%) (mean activity ± S.D.) N^α -AT [3, 4] | Activity (%) (mean activity ± S.D.) M-N^α -AT [2, 5] | Activity (%) (mean activity ± S.D.) N^α -AT [3, 5] |
| --- | --- | --- | --- | --- | --- |
| human superoxide dismutase (1-24): synthetic peptide substrate, residues 1-24 of human superoxide dismutase (ATKAVCVLKGDGPVQGIINFEQKE; UniProt P00441 2-25, looked up, fragment) | effectively transfer an acetyl group | – | – | – | – |
| DIPETQKGVIFYESHGKLEYKDIP (DIPETQKGVIFYESHGKLEYKDIP) | – | 0% | 0% | – | – |
| YIPETQKGVIFYESHGKLEYKDIP (YIPETQKGVIFYESHGKLEYKDIP) | – | 0% | 20 ± 2% | – | – |
| STPETQKGVIFYESHGKLEYKDIP (STPETQKGVIFYESHGKLEYKDIP) | – | – | – | 0% | 144 ± 8% |
| SKPETQKGVIFYESHGKLEYKDIP (SKPETQKGVIFYESHGKLEYKDIP) | – | – | – | 0% | 151 ± 6% |
| SFPETQKGVIFYESHGKLEYKDIP (SFPETQKGVIFYESHGKLEYKDIP) | – | – | – | 0% | 118 ± 6% |
| MIPETQKGVIFYESHGKLEYKDIP (MIPETQKGVIFYESHGKLEYKDIP) | – | 0% | 15 ± 2% | – | – |
| FIPETQKGVIFYESHGKLEYKDIP (FIPETQKGVIFYESHGKLEYKDIP) | – | 0% | 9 ± 2% | – | – |
| SNPETQKGVIFYESHGKLEYKDIP (SNPETQKGVIFYESHGKLEYKDIP) | – | – | – | 0% | 116 ± 5% |
| SDPETQKGVIFYESHGKLEYKDIP (SDPETQKGVIFYESHGKLEYKDIP) | – | – | – | 0% | 171 ± 9% |
| CIPETQKGVIFYESHGKLEYKDIP (CIPETQKGVIFYESHGKLEYKDIP) | – | 0% | 0% | – | – |
| SQPETQKGVIFYESHGKLEYKDIP (SQPETQKGVIFYESHGKLEYKDIP) | – | – | – | 0% | 134 ± 7% |
| SRPETQKGVIFYESHGKLEYKDIP (SRPETQKGVIFYESHGKLEYKDIP) | – | – | – | 0% | 102 ± 5% |
| SHPETQKGVIFYESHGKLEYKDIP (SHPETQKGVIFYESHGKLEYKDIP) | – | – | – | 0% | 125 ± 6% |
| QIPETQKGVIFYESHGKLEYKDIP (QIPETQKGVIFYESHGKLEYKDIP) | – | 0% | 0% | – | – |
| SSPETQKGVIFYESHGKLEYKDIP (SSPETQKGVIFYESHGKLEYKDIP) | – | – | – | 0% | 140 ± 6% |
| SGPETQKGVIFYESHGKLEYKDIP (SGPETQKGVIFYESHGKLEYKDIP) | – | – | – | 0% | 84 ± 5% |
| SIPETQKGVIFYESHGKLEYKDIP (SIPETQKGVIFYESHGKLEYKDIP) [ALCOHOL DEHYDROGENASE I (1-24) (Yeast), synthetic peptide substrate, yeast alcohol dehydrogenase I residues 1-24, reference compound] | effectively transfer an acetyl group | 0% | 102 ± 5% | 0% | 102 ± 5% |
| SPPETQKGVIFYESHGKLEYKDIP (SPPETQKGVIFYESHGKLEYKDIP) | – | – | – | 0% | 0% |
| SEPETQKGVIFYESHGKLEYKDIP (SEPETQKGVIFYESHGKLEYKDIP) | – | – | – | 0% | 121 ± 6% |
| SYSMEHFRWGKPVGKKRRPVKVYP [ACTH (Human), reference compound] | effectively transfer an acetyl group | 0% | 100 ± 5% | 0% | 100 ± 5% |
